The data set relates to SUMO1-trypsinogen fusion, chloroplast-targeted, extracted from N. benthamiana leaves and refolded.
Chain of SUMO1-trypsinogen fusion, chloroplast-targeted, extracted from N. benthamiana leaves and refolded (chain, as listed by the source): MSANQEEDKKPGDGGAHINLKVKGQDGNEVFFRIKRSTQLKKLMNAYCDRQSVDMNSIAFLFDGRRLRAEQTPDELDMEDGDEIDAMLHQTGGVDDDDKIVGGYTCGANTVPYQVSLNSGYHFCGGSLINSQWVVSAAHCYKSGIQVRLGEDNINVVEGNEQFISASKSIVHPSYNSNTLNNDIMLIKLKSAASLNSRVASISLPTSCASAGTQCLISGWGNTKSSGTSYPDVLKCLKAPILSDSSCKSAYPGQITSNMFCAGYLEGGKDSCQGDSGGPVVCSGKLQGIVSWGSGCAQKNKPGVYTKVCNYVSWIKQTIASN

In the case of enterokinase (Sigma, cat. no. E0885), the “kinetics of BAPNA cleavage (absorption at 405 nm) after enterokinase treatment of the folding reaction” value was “refolded and enterokinase-treated SUMO1-trypsinogen fusion produces active trypsin capable of digesting the substrate BAPNA”.

Source of the values: patent US20110055976.
